The text below walks through data of paper PMC11602160, “Modulation of UPF1 catalytic activity upon interaction of SARS-CoV-2 Nucleocapsid protein with factors involved in nonsense mediated-mRNA decay” (Nucleic Acids Research, 2024).

This experiment concerns the target T1, full-length GST-tagged SARS-CoV-2 Nucleocapsid (N) protein (SARS-CoV-2, UniProt P0DTC9 1-419).
T1 construct: SARS-CoV-2 Nucleocapsid (N) protein, full length; also called GST-N
Nature of the experiment: pull-down. The following applies: both partners purified.

B1: UPF2 truncated construct lacking 120 and 45 residues at the N- and C-termini (domain or fragment, human, UniProt Q9HAU5 121-1227, looked up)
chain: MKEKEESIQLHQEAWERHHLRKELRSKNQNAPDSRPEENFFSRLDSSLKKNTAFVKKLKTITEQQRDSLSHDFNGLNLSKYIAEAVASIVEAKLKISDVNCAVHLCSLFHQRYADFAPSLLQVWKKHFEARKEEKTPNITKLRTDLRFIAELTIVGIFTDKEGLSLIYEQLKNIINADRESHTHVSVVISFCRHCGDDIAGLVPRKVKSAAEKFNLSFPPSEIISPEKQQPFQNLLKEYFTSLTKHLKRDHRELQNTERQNRRILHSKGELSEDRHKQYEEFAMSYQKLLANSQSLADLLDENMPDLPQDKPTPEEHGPGIDIFTPGKPGEYDLEGGIWEDEDARNFYENLIDLKAFVPAILFKDNEKSCQNKESNKDDTKEAKESKENKEVSSPDDLELELENLEINDDTLELEGGDEAEDLTKKLLDEQEQEDEEASTGSHLKLIVDAFLQQLPNCVNRDLIDKAAMDFCMNMNTKANRKKLVRALFIVPRQRLDLLPFYARLVATLHPCMSDVAEDLCSMLRGDFRFHVRKKDQINIETKNKTVRFIGELTKFKMFTKNDTLHCLKMLLSDFSHHHIEMACTLLETCGRFLFRSPESHLRTSVLLEQMMRKKQAMHLDARYVTMVENAYYYCNPPPAEKTVKKKRPPLQEYVRKLLYKDLSKVTTEKVLRQMRKLPWQDQEVKDYVICCMINIWNVKYNSIHCVANLLAGLVLYQEDVGIHVVDGVLEDIRLGMEVNQPKFNQRRISSAKFLGELYNYRMVESAVIFRTLYSFTSFGVNPDGSPSSLDPPEHLFRIRLVCTILDTCGQYFDRGSSKRKLDCFLVYFQRYVWWKKSLEVWTKDHPFPIDIDYMISDTLELLRPKIKLCNSLEESIRQVQDLEREFLIKLGLVNDKDSKDSMTEGENLEEDEEEEEGGAETEEQSGNESEVNEPEEEEGSDNDDDEGEEEEEENTDYLTDSNKENETDEENTEVMIKGGGLKHVPCVEDEDFIQALDKMMLENLQQRSGESVKVHQLDVAIPLHLKSQLRKGPPLGGGEGEAESADTMPFVMLTRKGNKQQFKILNVPMSSQLAANHWNQQQAEQEERMRMKKLTLDINERQEQED
notes: human UPF2 lacking 120 residues at the N-terminus and 45 residues at the C-terminus
Consider B1, for which the binding result was “binds”.
